Where “and” joins values, the source holds several entries; their conditions need not be identical. Identical values can stand only once. Like-named read-outs stand apart in the source and are kept apart here. *1 amine or outer side, *2 acyl side, *3 side chain or, on linkers, in order; H or OH if unused. Bridges are numbered along the chain shown (N, C = ends). Where no end group is shown, it is not given here. Side-chain parts run from the residue outwards. [ ]: non-standard residue; d: D form. The star is where a group is joined. (mPEG)2 40 kDa = C3 = Cys(mPEG)240kDa, branched (mPEG)2, 40 kDa; Oxa12‑cholesterol = C10 = Cys(oxa12-cholesterol); γGlu = O=C(O)[C@H](CCC(=O)[*:2])N[*:1]; oxa12‑cholesterol = not defined here; Palmitoyl = CCCCCCCCCCCCCCCC(=O)*; Met(O) = CS(=O)CC[C@H](N)C(=O)O; Ac4c = NC1(C(=O)O)CCC1; Aib = CC(C)(N)C(=O)O
What was measured:
Assay in all cases: cell-based or functional assay
human glucagon receptor [1] = biological target: T1, human glucagon receptor (human, UniProt P47871 26-477)
human GLP-1 receptor [2] = biological target: T2, human GLP-1 receptor (human, UniProt P43220 24-463)
human glucagon receptor [3] = biological target: T1, human glucagon receptor; remark: listed apart in the source
human GLP-1 receptor [4] = biological target: T2, human GLP-1 receptor; remark: listed apart in the source
human glucagon receptor [5] = biological target: T1, human glucagon receptor; remark: listed apart in the source

T1 sequence (P47871 26-477): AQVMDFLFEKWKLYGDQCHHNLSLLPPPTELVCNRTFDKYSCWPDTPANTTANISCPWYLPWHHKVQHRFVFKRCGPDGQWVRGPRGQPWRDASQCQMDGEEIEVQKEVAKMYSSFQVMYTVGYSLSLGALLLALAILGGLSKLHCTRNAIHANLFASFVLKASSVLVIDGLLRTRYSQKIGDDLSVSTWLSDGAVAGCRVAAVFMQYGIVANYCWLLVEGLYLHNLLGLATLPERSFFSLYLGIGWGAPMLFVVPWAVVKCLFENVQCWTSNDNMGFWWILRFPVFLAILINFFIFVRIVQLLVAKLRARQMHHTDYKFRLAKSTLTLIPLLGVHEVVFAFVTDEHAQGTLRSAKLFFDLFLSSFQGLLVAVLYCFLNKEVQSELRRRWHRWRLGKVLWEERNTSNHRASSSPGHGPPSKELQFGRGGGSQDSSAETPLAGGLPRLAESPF

Binder	hGCGR + 20% plasma EC50 (human glucagon receptor [1])	hGLP-1R + 20% Plasma EC50 (human GLP-1 receptor [2])	% Activation of GCGR (human glucagon receptor [3])	GCGR EC50 (human glucagon receptor [3])	GLP-1R EC50 (human GLP-1 receptor [4])	also measured
HSQGTFTSDKSKYLDSRRAQDFVQWLMNTK (D-Ser at position 2; Lys(γE-γE-palmitoyl) at position 10; C-terminal amide) [OXM409]	0.1 nM	0.7 nM	–	–	–	–
H[dS]QGTFTSDK([γGlu-γGlu-Palmitoyl])SKYLDERRAQDFVQWLMNTK-NH2 (N-terminus assumed; SMILES CCCCCCCCCCCCCCCC(=O)N[C@@H](CCC(=O)N[C@@H](CCC(=O)NCCCC[C@H](NC(=O)[C@H](CC(=O)O)NC(=O)[C@H](CO)NC(=O)[C@@H](NC(=O)[C@H](Cc1ccccc1)NC(=O)[C@@H](NC(=O)CNC(=O)[C@H](CCC(N)=O)NC(=O)[C@@H](CO)NC(=O)[C@@H](N)Cc1c[nH]cn1)[C@@H](C)O)[C@@H](C)O)C(=O)N[C@@H](CO)C(=O)N[C@@H](CCCCN)C(=O)N[C@@H](Cc1ccc(O)cc1)C(=O)N[C@@H](CC(C)C)C(=O)N[C@@H](CC(=O)O)C(=O)N[C@@H](CCC(=O)O)C(=O)N[C@@H](CCCNC(=N)N)C(=O)N[C@@H](CCCNC(=N)N)C(=O)N[C@@H](C)C(=O)N[C@@H](CCC(N)=O)C(=O)N[C@@H](CC(=O)O)C(=O)N[C@@H](Cc1ccccc1)C(=O)N[C@H](C(=O)N[C@@H](CCC(N)=O)C(=O)N[C@@H](Cc1c[nH]c2ccccc12)C(=O)N[C@@H](CC(C)C)C(=O)N[C@@H](CCSC)C(=O)N[C@@H](CC(N)=O)C(=O)N[C@H](C(=O)N[C@@H](CCCCN)C(N)=O)[C@@H](C)O)C(C)C)C(=O)O)C(=O)O) [OXM411]	0.2 nM	0.1 nM	–	–	–	–
HSQGTFTSDYSKYLDSRRAQDFVQWLMNTKRNRNNIAC (D-Ser at position 2; C1 = Cys(mPEG)5kDa at position 38; C-terminal amide) [OXM33]	–	–	78%	75.3 nM	115 nM	–
HXQGTFTSDYSKYLDSRRAQDFVQWLMNTKRNRNNIAC (Aib at position 2; C3 = Cys(mPEG)240kDa (branched (mPEG)2, 40 kDa) at position 38; C-terminal amide) [OXM69]	–	–	46%	> 1000 nM	6 nM	–
HSQGTFTSDYSKYLDSRRAQDFVQWLMNTKRNRNNIAC (D-Ser at position 2; C3 = Cys(mPEG)240kDa (branched (mPEG)2, 40 kDa) at position 38; C-terminal amide) [OXM35]	–	–	71%	142 nM	716 nM	–
HXQGTFTSDYSKYLDSRRAQDFVQWLMNTKRNRNNIAC (not fully specified; Aib at position 2; methionine sulfoxide at position 27; C3 = Cys(mPEG)240kDa (40 kDa) at position 38; C-terminal amide) [OXM99]	–	–	66%	> 1000 nM	7.4 nM	–
HSQGTFTSDYSKYLDSRRAQDFVQWLMNTKRNRNNIAK (D-Ser at position 2; K(palmitoyl) at position 38; C-terminal amide) [OXM110]	–	–	–	–	–	GCGR + 10% plasma (human glucagon receptor [5]): 6.9 nM; GCGR EC50 (human glucagon receptor [5]): 0.31 nM
HSQGTFTSDYSKYLDSRRAQDFVQWLMNTKRNRNNIAC (not fully specified; D-Ser at position 2; C4 = Cys(cholest-5-en-3-yl{[(2R)-3-amino-2-(amino)-3-oxopropyl]thio}acetate) at position 38; C-terminal amide) [OXM36]	–	–	–	–	–	GCGR EC50 (human glucagon receptor [5]): 12.1 nM
HXQGTFTSDYSKYLDSRRAQDFVQWLMNTKRNRNNIAC (α-aminoisobutyric acid (Aib) at position 2; C1 = Cys(mPEG)5kDa at position 38; C-terminal amide) [OXM67]	–	–	73%	138 nM	5.8 nM	–
HSQGTFTSDYSKYLDSRRAQDFVQWLMNTKRNRNNIAC (D-Ser at position 2; C2 = Cys(mPEG)20kDa at position 38; C-terminal amide) [OXM34]	–	–	61%	616 nM	195 nM	–
HXQGTFTSDYSKYLDSRRAQDFVQWLMNTKRNRNNIAC (Aib at position 2; C2 = Cys(mPEG)20kDa at position 38; C-terminal amide) [OXM68]	–	–	58%	601 nM	8.3 nM	–
HXQGTFTSDYSKYLDSRRAQDFVQWLMNTKRNRNNIAC (Aib at position 2; methionine sulfoxide at position 27; C6 = Cys(mPEG)260kDa (60 kDa) at position 38; C-terminal amide) [OXM100]	–	–	22%	> 1000 nM	22.5 nM	–
H[Aib]QGTFTSDK([γGlu-γGlu-Palmitoyl])SKYLDERRAQDFVQWLMNTK-NH2 (N-terminus assumed; SMILES CCCCCCCCCCCCCCCC(=O)N[C@@H](CCC(=O)N[C@@H](CCC(=O)NCCCC[C@H](NC(=O)[C@H](CC(=O)O)NC(=O)[C@H](CO)NC(=O)[C@@H](NC(=O)[C@H](Cc1ccccc1)NC(=O)[C@@H](NC(=O)CNC(=O)[C@H](CCC(N)=O)NC(=O)C(C)(C)NC(=O)[C@@H](N)Cc1c[nH]cn1)[C@@H](C)O)[C@@H](C)O)C(=O)N[C@@H](CO)C(=O)N[C@@H](CCCCN)C(=O)N[C@@H](Cc1ccc(O)cc1)C(=O)N[C@@H](CC(C)C)C(=O)N[C@@H](CC(=O)O)C(=O)N[C@@H](CCC(=O)O)C(=O)N[C@@H](CCCNC(=N)N)C(=O)N[C@@H](CCCNC(=N)N)C(=O)N[C@@H](C)C(=O)N[C@@H](CCC(N)=O)C(=O)N[C@@H](CC(=O)O)C(=O)N[C@@H](Cc1ccccc1)C(=O)N[C@H](C(=O)N[C@@H](CCC(N)=O)C(=O)N[C@@H](Cc1c[nH]c2ccccc12)C(=O)N[C@@H](CC(C)C)C(=O)N[C@@H](CCSC)C(=O)N[C@@H](CC(N)=O)C(=O)N[C@H](C(=O)N[C@@H](CCCCN)C(N)=O)[C@@H](C)O)C(C)C)C(=O)O)C(=O)O) [OXM416]	1.4 nM	0.09 nM	–	–	–	–
HXQGTFTSDYSKYLDSRRAQDFVCWLMNTKRNRNNIA (Aib at position 2; C3 = Cys(mPEG)240kDa (40 kDa) at position 24; methionine sulfoxide at position 27; C-terminal amide) [OXM107]	–	–	30%	> 1000 nM	29.7 nM	–
H[Ac4c]QGTFTSDK([γGlu-γGlu-Palmitoyl])SKYLDERRAQDFVQWLMNTK-NH2 (N-terminus assumed; SMILES CCCCCCCCCCCCCCCC(=O)N[C@@H](CCC(=O)N[C@@H](CCC(=O)NCCCC[C@H](NC(=O)[C@H](CC(=O)O)NC(=O)[C@H](CO)NC(=O)[C@@H](NC(=O)[C@H](Cc1ccccc1)NC(=O)[C@@H](NC(=O)CNC(=O)[C@H](CCC(N)=O)NC(=O)C1(NC(=O)[C@@H](N)Cc2c[nH]cn2)CCC1)[C@@H](C)O)[C@@H](C)O)C(=O)N[C@@H](CO)C(=O)N[C@@H](CCCCN)C(=O)N[C@@H](Cc1ccc(O)cc1)C(=O)N[C@@H](CC(C)C)C(=O)N[C@@H](CC(=O)O)C(=O)N[C@@H](CCC(=O)O)C(=O)N[C@@H](CCCNC(=N)N)C(=O)N[C@@H](CCCNC(=N)N)C(=O)N[C@@H](C)C(=O)N[C@@H](CCC(N)=O)C(=O)N[C@@H](CC(=O)O)C(=O)N[C@@H](Cc1ccccc1)C(=O)N[C@H](C(=O)N[C@@H](CCC(N)=O)C(=O)N[C@@H](Cc1c[nH]c2ccccc12)C(=O)N[C@@H](CC(C)C)C(=O)N[C@@H](CCSC)C(=O)N[C@@H](CC(N)=O)C(=O)N[C@H](C(=O)N[C@@H](CCCCN)C(N)=O)[C@@H](C)O)C(C)C)C(=O)O)C(=O)O) [OXM417]	0.4 nM	0.15 nM	–	–	–	–
H[dS]QGTFTSDYSKYLDERRAKDFVQWLMNTK[γGlu][γGlu]C(oxa12‑cholesterol)-OH (lactam 16-20; reading uncertain) [OXM392]	0.3 nM	3 nM	–	–	–	hGCGR EC50 (human glucagon receptor [1]): 0.03 nM; hGLP-1R EC50 (human GLP-1 receptor [2]): 0.03 nM
H[Aib]QGTFTSDYSKYLDERRAKDFVQWLMNTK[γGlu][γGlu]C(Oxa12‑cholesterol)-OH (lactam 16-20) [OXM395]	119 nM	3.3 nM	–	–	–	hGCGR EC50 (human glucagon receptor [1]): 10 nM; hGLP-1R EC50 (human GLP-1 receptor [2]): 0.7 nM
H[Aib]QGTFTSDYC((mPEG)2 40 kDa)KYLDSRRAQDFVQWL[Met(O)]NTKRNRNNIA-NH2 [OXM121]	–	–	–	–	> 125 nM	–
H[Aib]QGTFTSDYSKYLDSRRAC((mPEG)2 40 kDa)DFVQWLMNTKRNRNNIA-NH2 [OXM103]	–	–	75%	203 nM	6.2 nM	–
H[Aib]QGTFTSDYSC((mPEG)2 40 kDa)YLDSRRAQDFVQWL[Met(O)]NTKRNRNNIA-NH2 [OXM124]	–	–	–	–	> 100 nM	–
HSQGTFTSDYSKYLDSRRAQDFVQWLMNTKEEC (D-Ser at position 2; gamma-glutamic acid at positions 31 and 32; C4 = Cys(cholesterol) at position 33; C-terminal COOH) [OXM345]	> 1000 nM	> 1000 nM	–	–	–	hGCGR EC50 (human glucagon receptor [1]): 0.1 nM; hGLP-1R EC50 (human GLP-1 receptor [2]): 5.1 nM
HSQGTFTSDYSKYLDSRRAQDFVQWLMNTKEEC (D-Ser at position 2; gamma-glutamic acid at positions 31 and 32; C9 = Cys(mal-oxa12-cholesterol) at position 33; C-terminal COOH) [OXM381]	0.8 nM and 0.9 nM	1.9 nM	–	–	–	–
HSQGTFTSDYSKYLDSRRAQDFVQWLMNTKEEC (D-Ser at position 2; gamma-glutamic acid at positions 31 and 32; C10 = Cys(oxa12-cholesterol) at position 33; C-terminal COOH) [OXM399]	0.4 nM	5.7 nM	–	–	–	hGCGR EC50 (human glucagon receptor [1]): 0.01 nM; hGLP-1R EC50 (human GLP-1 receptor [2]): 0.05 nM
HSQGTFTSDYSKYLDSRRAQDFVQWLMNTKEEC (D-Ser at position 2; gamma-glutamic acid at positions 31 and 32; C7 = Cys(Oxa4-cholesterol) at position 33; C-terminal COOH) [OXM380]	3.4 nM	30.7 nM	–	–	–	hGCGR EC50 (human glucagon receptor [1]): 0.1 nM; hGLP-1R EC50 (human GLP-1 receptor [2]): 0.3 nM
HXQGTFTSDYSKYLDSRRAQDFVQWLMNTKEEC (Aib at position 2; gamma-glutamic acid at positions 31 and 32; C10 = Cys(oxa12-cholesterol) at position 33; C-terminal COOH) [OXM400]	0.8 nM	1.9 nM	–	–	–	hGCGR EC50 (human glucagon receptor [1]): 0.01 nM; hGLP-1R EC50 (human GLP-1 receptor [2]): 0.07 nM
HXQGTFTSDYSKYLDSRRAQDFVQWLMNTKEEC (Acb (1-amino-1-cyclobutane carboxylic acid) at position 2; gamma-glutamic acid at positions 31 and 32; C10 = Cys(oxa12-cholesterol) at position 33; C-terminal COOH) [OXM401]	0.3 nM	2.9 nM	–	–	–	hGCGR EC50 (human glucagon receptor [1]): 0.09 nM; hGLP-1R EC50 (human GLP-1 receptor [2]): 0.23 nM
H[Aib]QGTFTSDYSKYLDSRRAQC((mPEG)2 40 kDa)FVQWLMNTKRNRNNIA-NH2 [OXM105]	–	–	21%	648 nM	28.5 nM	–

— patent US20120165503A1 (Merck Sharp & Dohme, published 2012)
